Read-outs that look alike come from different tables or passages of the source.
Assays:
[1] = molecular target: human ROR1 on stably transfected cell strain MCF7-hROR1 clone 2G2 (human) (UniProt Q01973); experiment: flow cytometry (FACS) on MCF7-hROR1 clone 2G2 cells, identification of the stably transfected clone
[2] = test system: SKBR3 tumor cell; experiment: Binding of anti-HER2 ADC and antibody with SKBR3 tumor cell by FACS; design: species or system human
Description: SKBR3 cells (from ATCC) were collected, counted, and plated in a 96-well plate (Corning, 3795) at 2×10^5 cells/well. The serially diluted sample to be detected was added and incubated at 4° C. for 1 h. After the mixture was washed twice with ice PBS, Alexa Fluor-647 goat anti-human Fc secondary antibody (JacksonImmuno, 109-605-098) was added, and the mixture was incubated at 4° C. for 1 h. After the mixture was washed twice with ice PBS, the cells were resuspended, and the mean fluorescence intensity (MFI) was analyzed using a flow cytometer (BD FACSCanto™ II). Data were analyzed by four-parameter curve fitting using Graphpad Prism software to give EC50 values.

[3] = test system: MCF7-hROR1 clone 2G2; experiment: FACS identification of MCF7 cell line stably transfected with human ROR1 protein; format: binding
Description: A nucleotide sequence encoding the amino acid sequence of human ROR1 (SEQ ID NO: 105) was cloned into a pLVX lentiviral vector, and viral particles were prepared in HEK293T cells. After lentivirus infection, the MCF7 cell line (purchased from Chinese Academy of Science), was selectively cultured in a DMEM (Gibco, Cat. No. 11995073) medium containing 5 μg/mL puromycin (Gibco, Cat. No. A1113803) and 10% (w/w) fetal bovine serum (ExCell Bio, Cat. No. FND500) for 1 week. Positive cell populations with different expression levels were sorted on a flow cytometer FACS Aria III (purchased from BD Biosciences) using ROR1-Ab-1 and goat anti-mouse IgG (H+L) antibody (Jackson, Cat. No. 115605006) and cultured in 96-well plates at 37° C. with 5% (v/v) CO2. After about 2 weeks, a portion of the cells were selected for expansion, and positive cell populations with better growth, higher fluorescence intensity, and better homogeneity were selected, further expanded and cryopreserved in liquid nitrogen.

[4] = test system: OVCAR3 subcutaneous tumor model; experiment: Efficacy in OVCAR3 subcutaneous tumor model-1; format: in vivo, Balb/c nude mice; details: 3 mg/kg, single intravenous injection
Description: Experimental reagent: Human ovarian cancer OVCAR3 cells were purchased from ATCC, RPMI-1640 medium was purchased from Gibco (Cat. No. A104910), fetal bovine serum was purchased from Excell (Cat. No. FND500), penicillin-streptomycin was purchased from Gibco (Cat. No. 15140122), bovine insulin was purchased from Yeasen (Cat. No. 40107ES60), 0.25% trypsin-EDTA was purchased from Gibco (Cat. No. 25200-072), D-PBS (phosphate-buffered saline without calcium and magnesium ions) was purchased from Hyclone (Cat. No. SH30256.01), and Matrigel was purchased from Corning (Cat. No. 356237).
Animal information: Balb/c nude mice, female, 5-6 weeks, weight about 14-20 g, purchased from Beijing Vital River Biotechnology Co., Ltd. The mice were bred in SPF-rated environment with air exhaust for each cage individually. All animals had free access to standard certified commercial laboratory diets and water.
Cell culture: The human ovarian cancer OVCAR3 cell strain was cultured in vitro under the conditions of RPMI-1640 added with 20% fetal bovine serum, 1% penicillin-streptomycin, and […] bovine insulin, and an incubator at 37° C. with 5% CO2. The cells were digested with a 0.25% trypsin-EDTA digestive solution once a week for passaging as per conventional practice. When the cell saturation was 80%-90% and a required amount was achieved, the cells were collected and counted.
Cell inoculation: 0.1 mL of OVCAR3 cell suspension (containing 1×10^7 cells, RPMI-1640: Matrigel, volume ratio 1:1) was inoculated subcutaneously into the axilla of each mouse. On day 26 after inoculation of the cells, the mice were randomly grouped and administrated based on tumor volume.
The day when random grouping was performed was day 0.
Tumor diameters were measured twice weekly using a vernier caliper. The tumor volume was calculated using the following formula: V=0.5a×b^2, where a and b represent the long diameter and short diameter of the tumor, respectively. Mouse body weight was measured twice weekly.

[5] = 37° C., 100 μg/mL
Description: ADC molecules (final concentration: 100 μg/mL) were separately incubated with human plasma (Oribiotech, PB021-C) and monkey plasma (Shinuoda Bio, SND-X0107) in an incubator at 37° C. The day of incubation was defined as day 0. Samples were taken on days 7, 14 and 28 and tested for the free small molecule.
300 μL of an internal standard working solution (acetonitrile preparation) was added to 20 μL of the sample, and the mixture was vortexed for mixing for 5 min and centrifuged for 5 min (14000 rpm). 4 μL of the supernatant was analyzed by LC-MS/MS (API 6500+).

IgG subtype control (antibody)
Mean fluorescence intensity of cells [1]: 54.7

Pertuzumab: anti-human HER2 monoclonal antibody; VH SEQ ID NO: 3, VL SEQ ID NO: 4 [reference compound]
EC50 [2]: 3.73 nM

B1: ROR1-Ab-1: anti-human ROR1 monoclonal antibody, variable region sequence from patent WO2020198531A2; SEQ ID NO: 80/81 (antibody, V domains shown)
VH: QVQLQESGPGLVKPSQTLSLTCTVSGYAFTAYNIHWVRQAPGQGLEWMGSFDPYDGGSSYNQKFKDRLTISKDTSKNQVVLTMTNMDPVDTATYYCARGWYYFDYWGHGTLVTVSS
VL: DIVMTQTPLSLPVTPGEPASISCRASKSISKYLAWYQQKPGQAPRLLIYSGSTLQSGIPPRFSGSGYGTDFTLTINNIESEDAAYYFCQQHDESPYTFGEGTKVEIK
Mean fluorescence intensity of cells [3]: 26497

B2: ADC-DS: comparator CDH6 antibody-drug conjugate of Table 9, DAR 7.5 (conjugate, chains of the INN, looked up)
VH: EVQLVQSGAEVKKPGASVKVSCKASGYTFTRNFMHWVRQAPGQGLEWMGWIYPGDGETEYAQKFQGRVTITADTSTSTAYMELSSLRSEDTAVYYCARGVYGGFAGGYFDFWGQGTLVTVSS
VL: DIQMTQSPSSLSASVGDRVTITCKASQNIYKNLAWYQQKPGKAPKLLIYDANTLQTGVPSRFSGSGSGSDFTLTISSLQPEDFATYFCQQYYSGWAFGQGTKVEIK
modifications: deruxtecan payload, DAR 7.5
Mean tumor volume (mm^3) Day 0 ([4]; Table 23): 154.4 mm^3 | Mean tumor volume (mm^3) Day 4 ([4]; Table 23, Day 4): 211.3 mm^3 | Mean tumor volume (mm^3) Day 7 ([4]; Table 23, Day 7): 194.1 mm^3 | Mean tumor volume (mm^3) Day 11 ([4]; Table 23, Day 11): 159.5 mm^3 | Mean tumor volume (mm^3) Day 14 ([4]; Table 23, Day 14): 131.5 mm^3 | Mean tumor volume (mm^3) Day 18 ([4]; Table 23, Day 18): 95.5 mm^3 | Mean tumor volume (mm^3) Day 22 ([4]; Table 23): 73.6 mm^3 | Mean tumor volume (mm^3) Day 25 ([4]; Table 23, Day 25): 66.0 mm^3 | Mean tumor volume (mm^3) Day 28 ([4]; Table 23, Day 28): 77.8 mm^3 | TGI (%) Day 28 ([4]; Table 23, Day 28): 110.6% | Mean tumor volume (mm^3) Day 0 ([4]; Table 24): 145.0 mm^3 | Mean tumor volume (mm^3) Day 5 ([4]; Table 24, Day 5): 165.9 mm^3 | Mean tumor volume (mm^3) Day 8 ([4]; Table 24, Day 8): 153.4 mm^3 | Mean tumor volume (mm^3) Day 12 ([4]; Table 24, Day 12): 91.4 mm^3 | Mean tumor volume (mm^3) Day 16 ([4]; Table 24, Day 16): 56.2 mm^3 | Mean tumor volume (mm^3) Day 19 ([4]; Table 24, Day 19): 41.2 mm^3 | Mean tumor volume (mm^3) Day 22 ([4]; Table 24): 28.9 mm^3 | Mean tumor volume (mm^3) Day 27 ([4]; Table 24, Day 27): 23.4 mm^3 | TG (%) Day 27 ([4]; Table 24, Day 27): 134.2% | Free small molecule % ([5]; Human plasma, incubation 0 day): 0.59% | Free small molecule % ([5]; Human plasma, incubation 7 days): 0.72% | Free small molecule % ([5]; Human plasma, incubation 14 days): 1.21% | Free small molecule % ([5]; Human plasma, incubation 28 days): 1.90% | Free small molecule % ([5]; Monkey plasma, incubation 0 day): 0.64% | Free small molecule % ([5]; Monkey plasma, incubation 7 days): 2.28% | Free small molecule % ([5]; Monkey plasma, incubation 14 days): 4.03% | Free small molecule % ([5]; Monkey plasma, incubation 28 days): 9.66%
